Test results reported in patent US20210380675A1 (Kyowa Kirin, published 2021).

T1: human IL-36γ, truncated (human, UniProt Q9NZH8 18-169)
T1 sequence: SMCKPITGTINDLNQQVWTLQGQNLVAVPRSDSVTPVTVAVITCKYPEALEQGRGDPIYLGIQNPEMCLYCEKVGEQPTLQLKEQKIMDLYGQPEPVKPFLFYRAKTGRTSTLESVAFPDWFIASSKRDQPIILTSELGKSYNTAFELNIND

T2: human IL-36α(R12), truncated (human, UniProt Q9UHA7 6-158)
T2 chain: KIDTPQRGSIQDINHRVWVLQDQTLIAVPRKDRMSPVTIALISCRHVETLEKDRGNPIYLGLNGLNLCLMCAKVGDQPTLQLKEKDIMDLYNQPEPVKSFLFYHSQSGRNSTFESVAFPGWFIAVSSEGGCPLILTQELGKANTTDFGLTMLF

T3: cynomolgus IL-36α, truncated (cynomolgus macaque (Macaca fascicularis), UniProt Q9UHA7 14-158 (human entry), limits assumed)
T3 chain: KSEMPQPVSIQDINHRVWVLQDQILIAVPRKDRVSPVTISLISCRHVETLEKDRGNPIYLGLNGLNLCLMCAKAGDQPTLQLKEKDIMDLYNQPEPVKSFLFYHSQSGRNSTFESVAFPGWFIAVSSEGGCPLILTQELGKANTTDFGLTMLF

T4: cynomolgus IL-36γ, truncated (cynomolgus macaque (Macaca fascicularis), UniProt Q9NZH8 18-167 (human entry), limits assumed)
T4 construct: Untagged after removal of the His-SUMO tag; also called cynomolgus IL-36 gamma; cyIL-36gamma
T4 chain: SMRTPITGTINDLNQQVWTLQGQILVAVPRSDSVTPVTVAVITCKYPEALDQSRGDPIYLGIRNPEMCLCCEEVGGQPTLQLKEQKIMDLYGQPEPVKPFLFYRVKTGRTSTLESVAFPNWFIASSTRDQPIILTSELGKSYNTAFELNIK

T5: human IL-36α(Q12), truncated (human, UniProt Q9UHA7 6-158)
T5 construct: Untagged after removal of the His-SUMO tag
T5 sequence: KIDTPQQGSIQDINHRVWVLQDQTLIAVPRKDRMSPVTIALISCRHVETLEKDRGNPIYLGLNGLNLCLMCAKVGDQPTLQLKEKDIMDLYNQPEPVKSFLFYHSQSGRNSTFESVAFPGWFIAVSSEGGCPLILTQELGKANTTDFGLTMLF


Columns and labels:
[1] = biological target: T1, human IL-36γ, truncated; assay: cell-based or functional assay
[2] = biological target: T2, human IL-36α(R12), truncated; assay: cell-based or functional assay
[3] = biological target: T3, cynomolgus IL-36α, truncated; assay: cell-based or functional assay
[4] = biological target: T2, human IL-36α(R12), truncated; assay: cell-based or functional assay
[5] = biological target: T1, human IL-36γ, truncated; assay: SPR, Biacore T200, antibody on chip, IL-36 as analyte, 1:1 Langmuir fit
Protocol: (§1) Antibodies were further tested for their binding to recombinant human or cynomolgus IL36α, IL-36γ in Biacore assays. In order to kinetically analyze the binding activity of the IL-36α and IL-36γ dual antagonist antibodies, the binding activity to human and cynomolgus IL-36α and IL-36γ was measured by surface plasmon resonance method (SPR). All of the following manipulations were carried out using a Biacore T200 (GE Healthcare Life Sciences, Pittsburgh, Pa.).
(§2) To determine antibody affinity to human and cynomolgus IL36, recombinant antibodies were immobilized on a CM5 sensor chip (cat# BR100012, GE Healthcare Life Sciences, Pittsburgh, Pa.) by an amine coupling chemistry. In particular, the kinetic assay was carried out by immobilizing on the chip approximately 2000 RU of recombinant antibody. Thereafter, recombinant human or cynomolgus IL36 proteins, serially diluted from a high concentration, were allowed to run at a flow rate of 30 μL/min onto the chip for 420 seconds. The dissociation time was 3600 seconds and the binding curves were measured at 25° C. Regeneration was performed with 10 mM glycine pH 1.5 for 30s. Alternatively, the analytes were injected with increasing concentrations in a single cycle, the surface not being regenerated between injections, using a method referred to as “single cycle kinetics.” In particular, either anti-human or anti-mouse Fc specific antibodies were immobilized on a CM5 sensor chip (cat# BR100012, GE Healthcare Life Sciences, Pittsburgh, Pa.) by an amine coupling chemistry. Thereafter, IL-36α and IL-36γ dual antagonist mouse/human chimeric or mouse antibodies were captured at approximately 200 RUs, followed by injections of increasing concentrations of recombinant human and cynomolgus IL36 proteins. The association time was 300 seconds, and the final dissociation time was 1200 seconds. At the end of the analyte injections, the surface was regenerated with either 3M MgCl₂ (anti-human Fc capture antibody) for 30 s or 10 mM glycine-HCl pH 1.7 for 180 s (anti-mouse IgG capture antibody).
(§3) The raw data were double referenced by subtraction of the signals from a reference flow cell without immobilized ligand and a buffer blank. The sensorgram corresponding to each concentration was obtained.

[6] = biological target: T3, cynomolgus IL-36α, truncated; assay: as above
Protocol: as §1, §2, §3

[7] = biological target: T2, human IL-36α(R12), truncated; assay: as above
Protocol: as §1, §2, §3

[8] = biological target: T4, cynomolgus IL-36γ, truncated; assay: as above
Protocol: as §1, §2, §3

[9] = biological target: T1, human IL-36γ, truncated; assay: cell-based or functional assay; remark: listed apart in the source
[10] = biological target: T2, human IL-36α(R12), truncated; assay: cell-based or functional assay
[11] = biological target: T1, human IL-36γ, truncated; assay: cell-based or functional assay; remark: listed apart in the source
[12] = biological target: T4, cynomolgus IL-36γ, truncated; assay: cell-based or functional assay
[13] = biological target: T5, human IL-36α(Q12), truncated; assay: SPR, Biacore T200, antibody on chip, IL-36 as analyte, 1:1 Langmuir fit
Protocol: as §1, §2, §3

Binder	IC50 of IL-8 secretion, primary human monocytes, 6 nM human IL-36γ, FIG. 5C [1] [nM]	IC50 of IL-8 secretion, primary human monocytes, 50 nM human IL-36γ, FIG. 5D [1] [nM]	IC50 of IL-8 secretion, primary human monocytes, 20 nM human IL-36α, FIG. 5A [2] [nM]	IC50 of IL-8 secretion, HaCaT, 10 nM cynomolgus IL-36α, FIG. 2B [3] [nM]	IC50 of IL-8 secretion, HaCaT, 10 nM human IL-36α, FIG. 1C [4] [nM]	Kd [5] [nM]	koff [5] [s⁻¹]	kon [5] [M⁻¹ s⁻¹]	Kd [6] [nM]	koff [6] [s⁻¹]	kon [6] [M⁻¹ s⁻¹]	Kd [7] [nM]	koff [7] [s⁻¹]	kon [7] [M⁻¹ s⁻¹]	Kd [8] [nM]	koff [8] [s⁻¹]	kon [8] [M⁻¹ s⁻¹]	IC50 of IL-8 secretion, primary human keratinocytes, 8.4 nM human IL-36γ, FIG. 4C [9] [nM]	IC50 of IL-8 secretion, HaCaT, 10 nM human IL-36γ, FIG. 1F [11] [nM]	IC50 of IL-8 secretion, HaCaT, 10 nM cynomolgus IL-36γ, FIG. 2D [12] [nM]	also measured
144L124B (antibody, V domains shown, Mouse monoclonal from hybridoma; mouse IgG heavy and lambda light chain; Same VH and VL as 144L180A) VH: EVQLQQSGAELVKPGASVKLSCTASGFNIKDTYIYWVKQRPEQGLEWIGRIDPANGYTRYDPKFQGKATMTADTSSNTAYLQLSSLTSEDTAVYYCARYEYYDSSFYFDYWGQGTTLTVSS VL: QAVVTQESALTTSPGETVTLTCRSSTGAVTTSNYANWVQEKPDHLFTGLIGGTNNRAPGVPARFSGSLIGDKAALTITGAQTEDEAIYFCALWYSNHLVFGGGTKLTVL	19.1	41.2	44.2	14.2	42	0.833	0.000691	829000	2.54	0.0192	7.56e+06	3.56	0.0417	1.17e+07	0.824	0.000488	593000	15.8	15.8	28.3	IC50 of IL-8 secretion, primary human keratinocytes, 6.25 nM human IL-36α, FIG. 4A [10]: 11.1 nM
144L180A (antibody, V domains shown) VH: EVQLQQSGAELVKPGASVKLSCTASGFNIKDTYIYWVKQRPEQGLEWIGRIDPANGYTRYDPKFQGKATMTADTSSNTAYLQLSSLTSEDTAVYYCARYEYYDSSFYFDYWGQGTTLTVSS VL: QAVVTQESALTTSPGETVTLTCRSSTGAVTTSNYANWVQEKPDHLFTGLIGGTNNRAPGVPARFSGSLIGDKAALTITGAQTEDEAIYFCALWYSNHLVFGGGTKLTVL	5.49	50.9	96.9	15.7	22.5	–	–	–	–	–	–	–	–	–	–	–	–	–	21.3	30.3	–
144L133B (antibody, V domains shown) VH: EVQLQQSGAELVKPGASVKLSCTASGFNIKDTYMYWVKQRPEQGLEWIGRIDPAIGTTRYDPKFQGKATLTADTSSNTAFLQLSSLTSEDTAVYYCARYDYSGSSFYFDYWGRGTTLTVSS VL: QAVVTQESALTTSPGETVTLTCRSSTGAVTTSNYANWVQEKPDHLFTGLIGGTNNRAPGVPARFSGSLIGDKAALTITGAQTEDEAIYFCALWYSNHLVFGGGTKLTVL	–	39.6	39.5	9.61	28.7	–	–	–	–	–	–	–	–	–	–	–	–	–	12.9	20.6	–
chimeric m/h 144D464A (antibody, human IgG1, lambda, V domains shown, Mouse VH/VL joined to human IgG1 constant and human Ig lambda (IGLC2) constant; also called chimeric mouse/human (m/h) 144D464A antibody) VH: EVQLQQSGAELVKPGASVRLSCTASGFNIKDTYIHWVKQRPEQGLEWIGRIDPAIGTTRYDPKFQGKATITTDTSSDTVHLQFSSLTSEDTAVYYCARLHYFGNNFFFDYWGQGTTLTVSS VL: QAVVTQESALTTSPGEAVTLTCRSSSGAVTTSNYANWVQEKPDHLFAGLIGGTNDRAPGVPARFSGSLIGDKAALTITGAQTEDEAIYFCALWFSNHWVFGGGTKLTVLG	–	33.3	7.15	4.91	7.77	1.48	0.000218	147000	1.64	0.000267	163000	2.18	0.000309	142000	1.84	0.000342	186000	12.8	9.54	13.2	IC50 of IL-8 secretion, primary human monocytes, 40 nM human IL-36α, FIG. 5B [2]: 22.4 nM; IC50 of IL-8 secretion, HaCaT, 10 nM human IL-36α, FIG. 1A [4]: 3.84 nM; Kd [13]: 1.08 nM; koff [13]: 0.000391 s⁻¹; kon [13]: 361000 M⁻¹ s⁻¹; IC50 of IL-8 secretion, primary human keratinocytes, 8.4 nM human IL-36γ, FIG. 4D [9]: 10 nM; IC50 of IL-8 secretion, primary human keratinocytes, 6.25 nM human IL-36α, FIG. 4A [10]: 2.32 nM; IC50 of IL-8 secretion, primary human keratinocytes, 8 nM human IL-36α, FIG. 4B [10]: 12.3 nM; IC50 of IL-8 secretion, HaCaT, 10 nM human IL-36γ, FIG. 1D [11]: 6.43 nM
